The target in test [1] is T1, CCX CKR (Homo sapiens, UniProt Q9NPB9).
T1 construct: Full length CCX CKR expression constructs were made in pIRESpuro expression vector; expressed in transfected cells
T1 sequence (Q9NPB9 1-350): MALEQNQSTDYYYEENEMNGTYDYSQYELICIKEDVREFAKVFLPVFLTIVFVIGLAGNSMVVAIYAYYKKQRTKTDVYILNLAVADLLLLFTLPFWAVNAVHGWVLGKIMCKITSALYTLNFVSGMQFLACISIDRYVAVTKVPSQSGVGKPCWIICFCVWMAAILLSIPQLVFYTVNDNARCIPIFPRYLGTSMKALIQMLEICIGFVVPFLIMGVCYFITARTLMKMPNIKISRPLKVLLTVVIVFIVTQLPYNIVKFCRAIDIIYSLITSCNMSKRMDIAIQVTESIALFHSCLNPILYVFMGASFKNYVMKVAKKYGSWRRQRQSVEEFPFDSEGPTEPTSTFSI
Put plainly: Small molecule screen: inhibition of 125I-ELC binding to HEK293 cells expressing CCX CKR. Particulars: for Effect on binding between ELC and CCX CKR: 125I-ELC ~25-100 pM, compounds 1-5 μg/mL, ~3 hours at 4° C., HEK293 Flag-CCX CKR cells; for Type of modulator of CCX CKR function: Table 1, class given beside the label. The protocol: Source plates of chemical libraries were obtained from commercial vendors and contained individual compounds at 5 mg/mL in DMSO, or in some instances, at 1 mg/mL. From these, multiple compound plates containing 10 compounds in each well were made, and these were diluted in 20% DMSO to a concentration of 50 μg/mL (10 μg/mL for those beginning at 1 mg/mL). An aliquot of 20 μL of each mixture was put into the test plates, which were stored frozen until use.
HEK293 cells stably expressing the M1 flag epitope-tagged CCX CKR (described in Example 3, supra) were cultured in DMEM-10% FBS, and harvested when the concentration was between 0.5-1.0×10^6 cells/mL. The cells were centrifuged and resuspended in assay buffer (20 mM HEPES, 80 mM NaCl, 1 mM CaCl2, 5 mM MgCl2, and with 0.2% bovine serum albumin, pH 7.4) to a concentration of 5.6×10^6 cells/mL.
Using a Multi-Probe automated system, 0.09 mL of cells was added to each well of the assay test plates containing the compounds, followed by 0.09 mL of ^125I-MIPβ3/ELC (from Amersham Pharmacia Biotech) diluted in assay buffer (final concentration ˜25-100 pM, with ˜50,000 cpm per well). The final concentration of the compounds was 1-5 μg/mL each. The plates were sealed and incubated for approximately 3 hours at 4° C. on a shaker platform. The assay plates were harvested using Packard GP/B filter plates, pre-soaked in PEI solution, on the vacuum harvest apparatus. Scintillation fluid (50 μL) was added to each of the wells, the plates were sealed and counted in a Top Count scintillation counter. Control wells contained either diluent only (for total counts) or excess ELC (1 μg/mL, for non-specific binding) and were used to calculate the percent of total inhibition of ELC binding for each set of compounds.

The target of test [2] is T1, CCX CKR. As to the kind of experiment: Ligand binding fingerprint: displacement of 125I-ELC from CCX CKR stable transfectants by cold chemokines. The following applies: cold competitor 200 nM; human and murine ELC, SLC, TECK; comparable with 125I-TECK. From the text:
In one embodiment, binding is detected as described by Dairaghi et al., 1997, J. Biol. Chem. 272:28206-209 (incorporated by reference in its entirety for all purposes) substituting CCX CKR transfectants for the CCR3 transfectants). In one embodiment, binding is detected using the filter based technique described by Dairaghi et al., 1999, J. Biol. Chem. 274:2156 (incorporated by reference in its entirety for all purposes), e.g., as shown in FIG. 4. Briefly, this technology employs expanded, efficiency-maximized radioligand binding utilizing filtration protocols. […] Filters are washed twice (25 mM HEPES, 500 mM NaCl, 1 mM CaCl25 mM MgCl2, adjusted to pH 7.1) and scintillant (e.g., MicroScint 20; 50 μl) is added to dried filters and counted (e.g., using a Packard Topcount scintillation counter). The competition dose-response curves is analyzed by standard methods to determine IC50 values (e.g., using GraphPad Prism software (San Diego, Calif.)). […]
In order to rapidly and thoroughly define a given chemokine receptor's ligand binding fingerprint, we have established an approach to comprehensively profile chemokine receptors using a large array of purified chemokines and chemokine variants. […] Employing radioligand binding of ^125I-labeled-ELC or ^125I-TECK to CCX CKR stable transfectants, chemokine specificity for the new receptor was determined. […]
A general note: Displacement assays read how much labelled ligand stays bound in the presence of the test substance.

Test [3] has as its target T1, CCX CKR. As to the kind of experiment: Radioligand binding competition with Scatchard transformation (binding constants). Particulars: for Affinity class of CCX CKR ligands (summary of Examples 4-6): summary statement. An excerpt:
In one embodiment, binding is detected as described by Dairaghi et al., 1997, J. Biol. Chem. 272:28206-209 (incorporated by reference in its entirety for all purposes) substituting CCX CKR transfectants for the CCR3 transfectants). In one embodiment, binding is detected using the filter based technique described by Dairaghi et al., 1999, J. Biol. Chem. 274:2156 (incorporated by reference in its entirety for all purposes), e.g., as shown in FIG. 4. Briefly, this technology employs expanded, efficiency-maximized radioligand binding utilizing filtration protocols. In these assays, 1×10^5 CCXCKR-293 HEK cells are incubated with […] (MlP3beta) (final concentration of ˜0.05 nM) in the presence of unlabeled chemokine for 3 h at 4° C. in 25 mM HEPES, 140 mM NaCl, 1 mM CaCl2, 5 mM MgCl2, and 0.2% bovine serum albumin, adjusted to pH 7.1. Reactions were aspirated onto PEI-treated GF/B glass filters using a cell harvester (Packard). Filters are washed twice (25 mM HEPES, 500 mM NaCl, 1 mM CaCl25 mM MgCl2, adjusted to pH 7.1) and scintillant (e.g., MicroScint 20; 50 μl) is added to dried filters and counted (e.g., using a Packard Topcount scintillation counter). The competition dose-response curves is analyzed by standard methods to determine IC50 values (e.g., using GraphPad Prism software (San Diego, Calif.)). Additionally, a Scatchard transformation can be used to estimate the receptor sites per cell (e.g., using WaveMetrics Igor software (Lake Oswego, Oreg.)).
Binding analysis was carried out using efficiency-maximized radioligand binding utilizing filtration protocols designated “Displace Max” (Dairaghi et al., 1999, J Biol. Chem. 274:21569). […]
The binding interactions identified in the primary screen were examined quantitatively by extensive radioligand binding competition to CCX CKR stable transfectants and Scatchard transformation of the displacement data (FIG. 4B). […]

Test [4] has as its target T1, CCX CKR. As to the kind of experiment: Ligand induced internalization of CCX CKR in 293 F-CCR10 cells (FACS, anti-Flag). In kind it is cell-based. The following applies: 100 nM chemokine, 37° C., 15 or 45 minutes. How it is done:
293 cells transfected with the Flag-CCX CKR fusion plasmid (i.e., “293 F-CCR10 cells;” see Example 3) were incubated at 37° C. with varying concentrations of chemokines (ELC, SLC, TECK, murine CTACK and MCP4) for 15 or 45 minutes. Following incubation, the cells were washed and fixed with 3% paraformaldehyde for 15 minutes on ice. The cells were stained with anti-Flag M1 antibody, followed by a PE-conjugated anti-mouse secondary antibody. FACS analysis were then carried out to determine surface expression of the receptor.
Results: A reduction in antibody binding in the presence of ligand is an indication of ligand-induced internalization of the receptor.

In test [5] the target is T1, CCX CKR. As to the kind of experiment: Adhesion of HEK293-CCX CKR cells to immobilized ELC-stalkokine and competition by soluble chemokines. In kind it is cell-based. The following applies: 5-10 ug/ml soluble recombinant chemokine as competitor. An excerpt: “Stalkokine” technology was used to :identify the chemokines bound by the CCX CKR. Briefly, immobilized native chemokines alone are incapable of capturing cells bearing cognate receptors (Imai et al., 1997, Cell 91:521). We have developed non-native chemokine structures, stalkokines, comprising chemokine moieties engineered as N-terminal attachments to extended modified mucins (Bazan et al., 1997, Nature 385:640). In one embodiment, stalkokines, harvested in the supernatants of HEK293 cells after transient transfection, are anchored to solid substrates via antibodies against carrier domains (e.g. poly-His epitopes) engineered to the carboxyl terminus, leaving the chemokine domain free to interact with candidate orphan receptors.
To determine ligand binding to CCX CKR, HEK293-CCX CKR cells were used to interrogate chemokine ‘stalkokines’ (SK), i.e., molecules in which discrete chemokine domains were engineered to be tethered to the end of an extended stalk structure. […] In all cases, nonadherent cells were removed by washing in PBS; remaining adherent cells were fixed with 1% glutaraldehyde, photoimaged and counted. […]

Test [6] deals with T1, CCX CKR. Put plainly: Homologous competition binding of radiolabeled chemokine on HEK293-CCX CKR cells. From the text:
Furthermore ELC-SK mediated adhesion was abolished in the presence of soluble native ELC as a competitor (FIG. 3A, top row). […] Moreover, radiolabeled ELC was used in a traditional homologous competition assay in the presence of increasing concentrations of unlabeled ELC. […] Taken together, the stalkokine-based adhesion and radiolabeled ligand binding/homologous competition assays indicate that CCX CKR is a new chemokine receptor that bound a novel compliment of chemokines.

The target of test [7] is T1, CCX CKR. As to the kind of experiment: Preliminary chemotaxis analysis of CCX CKR transfectants. In kind it is cell-based. The following applies: preliminary chemotaxis analyses, not shown.

Seven compounds from patent publication US6998239B1, “Method for identifying a modulator of the binding of CCX CKR polypeptide to a chemokine” (ChemoCentryx, Inc., priority 1999, dated 2006) can be followed below.

Entries after “also recorded” stand apart in the source; their conditions may differ.

`CC1CCCCN1CCCN(Cc1ccc(OCc2ccccc2)cc1)C(=O)Nc1ccc(Cl)c(Cl)c1` (centres unmarked) [Compound I]: at CCX CKR [1], the “Effect on binding between ELC and CCX CKR” value is “inhibit binding”; the “Type of modulator of CCX CKR function” value is given as “Com- pound I (antago- nist)”.
Consider `CCC(c1nc2ccccc2c(=O)n1C)N(Cc1ccco1)C(=O)Nc1cccc(C(F)(F)F)c1` (centres unmarked) [Compound III], for which, at CCX CKR [1], the “Effect on binding between ELC and CCX CKR” value is reported as “enhance binding”; the “Type of modulator of CCX CKR function” value is “Com- pound III (agonist)”.
Regarding BLC: CXC chemokine BLC, the “Binding to CCX CKR by displacement of 125I-labeled ELC” value with CCX CKR [2] is “lower affinity”. Also, the “Affinity for CCX CKR in multipoint competition, in words” value with CCX CKR [3] (competition against 125I-ELC) is on record as “of lesser affinity, also bound well”. The “Affinity class of CCX CKR ligands (summary of Examples 4-6)” value in the test with CCX CKR [3] is “lower affinity”.
On to “MCP4: chemokine used as non-binding control in internalization assay”, for which the “Internalization of the receptor” value with CCX CKR [4] is recorded as “did not cause internalization”.
For “ELC: EBII ligand chemokine, recombinant chemokine from R&D Systems”, the “Effect of soluble chemokine on ELC-SK mediated adhesion of HEK293-CCX CKR cells” value in the test with CCX CKR [5] is reported as “ablation of adhesion; also recorded: abolished”. In addition, in the test with CCX CKR [6], the “Binding of radiolabeled ELC, homologous competition with unlabeled ELC” value is listed as “significant binding”. Moreover, the “Binding to CCX CKR by displacement of 125I-labeled ELC” value with CCX CKR [2] is “bound well”. Further, in the test with CCX CKR [3], the “Affinity class of CCX CKR ligands (summary of Examples 4-6)” value was “high affinity”. In addition, the “Migration of CCX CKR transfectants in response to chemokine” value with CCX CKR [7] was “moderate migration”. The “Internalization of the receptor” value with CCX CKR [4] is “Internalization of the receptor was observed”.
For `CC1CCCCN1CCCN(Cc1ccc(OCc2ccccc2)cc1)C(=O)NC12CCCC3CCC1CC2C3` (centres unmarked) [Compound II], on CCX CKR [1], the “Effect on binding between ELC and CCX CKR” value is listed as “inhibit binding”; the “Type of modulator of CCX CKR function” value is on record as “Com- pound II (antago- nist)”.
For the compound “MCP-3: soluble chemokine, representative of non-competing chemokines”, in the test with CCX CKR [5], the “Effect of soluble chemokine on ELC-SK mediated adhesion of HEK293-CCX CKR cells” value was “no diminution in adhesion and not”.
